Test results taken from the supplement of paper PMC10567573.

B1: TCAP (parent)
chain: YQRVLPLPIFTPAKMGATKEERED

Variants of: B1
Experiment: protein stability index of a GFP-peptide fusion (GPS, HEK-293T) (PSI 1-6); higher = more stable
Details: c terminus: a fixed tail appended
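Further: lentivirally expressed fusions sorted by FACS into six bins by GFP to DsRed ratio, PSI derived from sequencing read proportions per bin multiplied by bin number.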

Protein stability index, by site and new letter:
T18: P 1.91 | V 2.38 | Q 2.39 | I 1.81 | A 1.79 | S 1.81 | F 1.76 | Y 1.7 | H 1.95 | L 2.56 | R 2.4 | E 3.02 | C 2.12 | K 2.25 | N 2.06 | M 1.52 | D 2.25 | G 1.96
V4: N 1.83 | K 1.8 | G 2.82 | F 2.27 | T 1.88 | W 2.55 | M 1.53 | D 1.52 | E 1.93 | R 1.7 | A 1.71 | H 1.37 | Q 1.9 | I 2.07 | C 2 | P 2.67 | Y 2.26 | S 1.72 | L 2.18
K19: P 2.21 | D 2.03 | M 2.5 | F 1.93 | S 2.08 | E 2.09 | W 1.81 | R 2.02 | L 1.8 | I 2.06 | C 1.78 | T 2.12 | V 1.63 | Q 1.91 | N 2.1 | Y 2.01 | A 2.02 | G 2.42 | H 1.8
K14: H 2.18 | C 1.69 | D 3.13 | G 2.65 | I 1.61 | R 2.21 | A 1.64 | S 2.46 | T 1.99 | V 2.78 | Q 2.32 | P 2.62 | N 2.32 | E 2.63 | Y 1.97 | L 1.81 | F 2.04 | M 1.77 | W 1.59
L7: H 4.72 | F 1.76 | D 2.1 | Y 2.71 | V 2.4 | A 1.75 | T 1.73 | Q 2.56 | G 2.46 | C 1.42 | N 1.54 | W 2.86 | I 2.19 | R 3.08 | M 2.43 | E 2.61 | K 3.33 | S 2.31 | P 2.59
R3: S 2.3 | Q 2.78 | C 3.12 | F 2.63 | L 1.86 | A 2.15 | P 1.55 | W 2.69 | D 2.03 | Y 4.55 | H 1.88 | M 3.43 | E 2.03 | T 2.05 | G 3 | K 2.5 | V 2.09 | I 1.73 | N 2.46
Q2: S 1.87 | W 2.59 | M 2.54 | P 1.55 | N 2.35 | K 4.35 | L 2.58 | I 2.08 | T 1.89 | R 3.9 | Y 2.93 | V 1.99
F10: C 3.63 | E 4.33 | Q 4.5 | Y 2.48 | K 4.08 | R 4.18 | S 4.06 | A 4.3 | L 3.73 | G 4.44 | P 4.14 | M 3.71 | D 4.32 | T 4.04 | V 3.65 | H 3.94 | I 3.72 | N 4.05
A17: N 2.08 | P 1.97 | D 2.1 | H 2.06 | F 1.74 | S 2.02 | E 2.07 | C 2.24 | M 2.38 | I 1.84 | Q 1.86 | W 2.11 | L 1.67 | T 1.78 | G 1.72 | R 2.05 | V 1.76 | K 2.21 | Y 1.89
I9: C 3.04 | M 3.07 | E 4.51 | Q 3.74 | Y 2.58
